For this test, the target named is fibronectin 70 kDa N-terminal fragment. The experiment in a line: SPR; BIAcore X; FN 70 kDa fragment immobilised on a CM5 chip; HGF (30–500 nM) injected in HEPES saline pH 7.4 with 1 mM MgCl2, 2 mM CaCl2; equilibrium and Scatchard analysis; apparent Kd; n = 3. In general terms: SPR reads the build-up and loss of mass on a sensor chip optically.

With “hepatocyte growth factor (from UniProt P14210 32-728) (ligand)”, the Kd amounted to 0.3 µM, the Kd of the high affinity site (two-site model) is 0.015 µM and the Kd of the low affinity site (two-site model) turned out to be 4 µM.

(Values after publication PMC553973.)
